Data: patent US9017992

Legend:
[1] = target: mouse anti-human BCL2 oncoprotein, Clone 124 (DakoCytomation code No. M0887); experiment: IHC on FFPE tonsil: unconjugated M0887 1:100 (0.015 uM) on tissue, then K5007 GaM:HRP 30 min
Human CD20cy (human) [2] = target: Human CD20cy (human) (UniProt P11836); experiment: IHC on multi-block FFPE tissue, primary 1:8000, K5007 reference
Human CD20cy (human) [3] = target: Human CD20cy (human) (UniProt P11836); experiment: IHC on FFPE tonsil, primary 1:8000, EnVision-based detection K5007
Human CD20cy (human) [4] = target: Human CD20cy (human) (UniProt P11836); experiment: IHC on FFPE tonsil, primary 1:2000, PNA based detection (D12102 + D12094)
Human CD20cy (human) [5] = target: Human CD20cy (human) (UniProt P11836); experiment: IHC on FFPE tonsil, primary 1:8000, PNA based detection (D12102 + D12094)
Human CD20cy (human) [6] = target: Human CD20cy (human) (UniProt P11836); experiment: IHC on FFPE tonsil, primary 1:14000, PNA based detection (D12102 + D12094)
Human CD20cy (human) [7] = target: Human CD20cy (human) (UniProt P11836); experiment: IHC on multi-block FFPE tissue, primary 1:8000, PNA system (D12102 + D12094)
Human CD45 LCA (human) [8] = target: Human CD45 LCA (human) (UniProt P08575); experiment: IHC on multi-block FFPE tissue, primary 1:1600, K5007 reference
Human CD45 LCA (human) [9] = target: Human CD45 LCA (human) (UniProt P08575); experiment: IHC on multi-block FFPE tissue, primary 1:1600, PNA system (D12102 + D12094)
Human CD68 (human) [10] = target: Human CD68 (human) (UniProt P34810); experiment: IHC on multi-block FFPE tissue, primary 1:800, K5007 reference
Human CD68 (human) [11] = target: Human CD68 (human) (UniProt P34810); experiment: IHC on multi-block FFPE tissue, primary 1:800, PNA system (D12102 + D12094)
[12] = target: Human Cytokeratin (human); experiment: IHC on multi-block FFPE tissue, primary 1:900, K5007 reference
[13] = target: Human Cytokeratin (human); experiment: IHC on FFPE tonsil, primary 1:900, EnVision-based detection K5007
[14] = target: Human Cytokeratin (human); experiment: IHC on FFPE tonsil, primary 1:900, PNA based detection (D12102 + D12094)
[15] = target: Human Cytokeratin (human); experiment: IHC on FFPE tonsil, primary 1:1600, PNA based detection (D12102 + D12094)
[16] = target: Human Cytokeratin (human); experiment: IHC on multi-block FFPE tissue, primary 1:900, PNA system (D12102 + D12094)
[17] = target: Human Cytokeratin (human); experiment: Double IHC on multi tissue sections, M3515 1:50, GaM-dex-PNA1 + PNA2-dex-HRP, DAB+
[18] = target: Human Cytokeratin (human); experiment: Double IHC on multi tissue sections, M3515 1:50, GaM-dex-PNA1 (209-149) + PNA2-dex-HRP (209-157), detection method 1
[19] = target: Human Cytokeratin (human); experiment: Double IHC on multi tissue sections, M3515 1:50, GaM-dex-PNA1 (209-149) + PNA2-dex-HRP (209-157), detection method 2
[20] = target: Human Cytokeratin (human); experiment: IHC on FFPE tonsil, primary 1:300, PNA based detection (GAM/dextran/PNA1 D12102 + HRP/dextran/PNA2 D12094); score 0 to 3+
Human Desmin (human) [21] = target: Human Desmin (human) (UniProt P17661); experiment: IHC on multi-block FFPE tissue, primary 1:1200, K5007 reference
Human Desmin (human) [22] = target: Human Desmin (human) (UniProt P17661); experiment: IHC on multi-block FFPE tissue, primary 1:1200, PNA system (D12102 + D12094)
[23] = target: Human Epithelial Membrane Antigen (human) (UniProt P15941); experiment: IHC on multi-block FFPE tissue, primary 1:6400, K5007 reference
UniProt P15941, sequence (P15941 24-1255 limits assumed): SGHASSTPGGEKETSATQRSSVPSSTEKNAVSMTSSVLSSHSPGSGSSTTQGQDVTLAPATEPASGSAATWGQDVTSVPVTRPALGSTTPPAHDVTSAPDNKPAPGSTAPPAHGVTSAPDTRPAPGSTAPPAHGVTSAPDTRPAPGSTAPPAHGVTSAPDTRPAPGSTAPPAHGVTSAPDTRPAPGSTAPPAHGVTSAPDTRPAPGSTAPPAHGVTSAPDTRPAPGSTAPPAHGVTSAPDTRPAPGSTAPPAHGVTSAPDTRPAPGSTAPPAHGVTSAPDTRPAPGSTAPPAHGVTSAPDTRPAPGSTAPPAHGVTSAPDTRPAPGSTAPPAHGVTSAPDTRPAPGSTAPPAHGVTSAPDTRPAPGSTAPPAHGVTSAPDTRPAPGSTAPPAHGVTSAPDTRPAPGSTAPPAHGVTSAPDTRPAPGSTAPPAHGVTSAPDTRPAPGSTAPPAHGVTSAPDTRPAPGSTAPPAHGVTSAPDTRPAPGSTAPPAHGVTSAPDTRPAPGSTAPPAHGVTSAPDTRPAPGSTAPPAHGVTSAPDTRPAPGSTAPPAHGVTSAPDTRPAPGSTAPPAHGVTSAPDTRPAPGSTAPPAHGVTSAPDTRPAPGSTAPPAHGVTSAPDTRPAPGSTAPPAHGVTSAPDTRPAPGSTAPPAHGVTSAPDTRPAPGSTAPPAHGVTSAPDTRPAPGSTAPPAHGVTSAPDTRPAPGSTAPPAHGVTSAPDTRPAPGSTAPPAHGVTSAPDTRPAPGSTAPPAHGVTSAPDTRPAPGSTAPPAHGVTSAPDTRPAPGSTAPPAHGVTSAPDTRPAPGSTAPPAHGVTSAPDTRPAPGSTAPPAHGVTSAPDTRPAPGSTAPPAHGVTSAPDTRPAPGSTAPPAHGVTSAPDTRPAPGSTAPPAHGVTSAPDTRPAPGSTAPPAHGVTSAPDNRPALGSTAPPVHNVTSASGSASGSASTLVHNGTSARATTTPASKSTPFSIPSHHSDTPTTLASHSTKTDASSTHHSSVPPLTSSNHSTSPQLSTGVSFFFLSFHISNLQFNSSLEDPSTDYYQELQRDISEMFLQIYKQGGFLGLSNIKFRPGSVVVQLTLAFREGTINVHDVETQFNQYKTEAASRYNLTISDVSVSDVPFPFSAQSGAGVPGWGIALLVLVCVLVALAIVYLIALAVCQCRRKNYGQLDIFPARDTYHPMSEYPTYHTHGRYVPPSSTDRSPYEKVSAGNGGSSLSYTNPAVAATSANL

[24] = target: Human Epithelial Membrane Antigen (human) (UniProt P15941); experiment: IHC on multi-block FFPE tissue, primary 1:6400, PNA system (D12102 + D12094)
[25] = target: Human Estrogen Receptor (human) (UniProt P03372); experiment: IHC on multi-block FFPE tissue, primary 1:200, K5007 reference
[26] = target: Human Estrogen Receptor (human) (UniProt P03372); experiment: IHC on multi-block FFPE tissue, primary 1:200, PNA system (D12102 + D12094)
[27] = target: Human Ki-67 Antigen (human) (UniProt P46013); experiment: IHC on multi-block FFPE tissue, primary 1:1200, K5007 reference
UniProt P46013, sequence (P46013 whole entry): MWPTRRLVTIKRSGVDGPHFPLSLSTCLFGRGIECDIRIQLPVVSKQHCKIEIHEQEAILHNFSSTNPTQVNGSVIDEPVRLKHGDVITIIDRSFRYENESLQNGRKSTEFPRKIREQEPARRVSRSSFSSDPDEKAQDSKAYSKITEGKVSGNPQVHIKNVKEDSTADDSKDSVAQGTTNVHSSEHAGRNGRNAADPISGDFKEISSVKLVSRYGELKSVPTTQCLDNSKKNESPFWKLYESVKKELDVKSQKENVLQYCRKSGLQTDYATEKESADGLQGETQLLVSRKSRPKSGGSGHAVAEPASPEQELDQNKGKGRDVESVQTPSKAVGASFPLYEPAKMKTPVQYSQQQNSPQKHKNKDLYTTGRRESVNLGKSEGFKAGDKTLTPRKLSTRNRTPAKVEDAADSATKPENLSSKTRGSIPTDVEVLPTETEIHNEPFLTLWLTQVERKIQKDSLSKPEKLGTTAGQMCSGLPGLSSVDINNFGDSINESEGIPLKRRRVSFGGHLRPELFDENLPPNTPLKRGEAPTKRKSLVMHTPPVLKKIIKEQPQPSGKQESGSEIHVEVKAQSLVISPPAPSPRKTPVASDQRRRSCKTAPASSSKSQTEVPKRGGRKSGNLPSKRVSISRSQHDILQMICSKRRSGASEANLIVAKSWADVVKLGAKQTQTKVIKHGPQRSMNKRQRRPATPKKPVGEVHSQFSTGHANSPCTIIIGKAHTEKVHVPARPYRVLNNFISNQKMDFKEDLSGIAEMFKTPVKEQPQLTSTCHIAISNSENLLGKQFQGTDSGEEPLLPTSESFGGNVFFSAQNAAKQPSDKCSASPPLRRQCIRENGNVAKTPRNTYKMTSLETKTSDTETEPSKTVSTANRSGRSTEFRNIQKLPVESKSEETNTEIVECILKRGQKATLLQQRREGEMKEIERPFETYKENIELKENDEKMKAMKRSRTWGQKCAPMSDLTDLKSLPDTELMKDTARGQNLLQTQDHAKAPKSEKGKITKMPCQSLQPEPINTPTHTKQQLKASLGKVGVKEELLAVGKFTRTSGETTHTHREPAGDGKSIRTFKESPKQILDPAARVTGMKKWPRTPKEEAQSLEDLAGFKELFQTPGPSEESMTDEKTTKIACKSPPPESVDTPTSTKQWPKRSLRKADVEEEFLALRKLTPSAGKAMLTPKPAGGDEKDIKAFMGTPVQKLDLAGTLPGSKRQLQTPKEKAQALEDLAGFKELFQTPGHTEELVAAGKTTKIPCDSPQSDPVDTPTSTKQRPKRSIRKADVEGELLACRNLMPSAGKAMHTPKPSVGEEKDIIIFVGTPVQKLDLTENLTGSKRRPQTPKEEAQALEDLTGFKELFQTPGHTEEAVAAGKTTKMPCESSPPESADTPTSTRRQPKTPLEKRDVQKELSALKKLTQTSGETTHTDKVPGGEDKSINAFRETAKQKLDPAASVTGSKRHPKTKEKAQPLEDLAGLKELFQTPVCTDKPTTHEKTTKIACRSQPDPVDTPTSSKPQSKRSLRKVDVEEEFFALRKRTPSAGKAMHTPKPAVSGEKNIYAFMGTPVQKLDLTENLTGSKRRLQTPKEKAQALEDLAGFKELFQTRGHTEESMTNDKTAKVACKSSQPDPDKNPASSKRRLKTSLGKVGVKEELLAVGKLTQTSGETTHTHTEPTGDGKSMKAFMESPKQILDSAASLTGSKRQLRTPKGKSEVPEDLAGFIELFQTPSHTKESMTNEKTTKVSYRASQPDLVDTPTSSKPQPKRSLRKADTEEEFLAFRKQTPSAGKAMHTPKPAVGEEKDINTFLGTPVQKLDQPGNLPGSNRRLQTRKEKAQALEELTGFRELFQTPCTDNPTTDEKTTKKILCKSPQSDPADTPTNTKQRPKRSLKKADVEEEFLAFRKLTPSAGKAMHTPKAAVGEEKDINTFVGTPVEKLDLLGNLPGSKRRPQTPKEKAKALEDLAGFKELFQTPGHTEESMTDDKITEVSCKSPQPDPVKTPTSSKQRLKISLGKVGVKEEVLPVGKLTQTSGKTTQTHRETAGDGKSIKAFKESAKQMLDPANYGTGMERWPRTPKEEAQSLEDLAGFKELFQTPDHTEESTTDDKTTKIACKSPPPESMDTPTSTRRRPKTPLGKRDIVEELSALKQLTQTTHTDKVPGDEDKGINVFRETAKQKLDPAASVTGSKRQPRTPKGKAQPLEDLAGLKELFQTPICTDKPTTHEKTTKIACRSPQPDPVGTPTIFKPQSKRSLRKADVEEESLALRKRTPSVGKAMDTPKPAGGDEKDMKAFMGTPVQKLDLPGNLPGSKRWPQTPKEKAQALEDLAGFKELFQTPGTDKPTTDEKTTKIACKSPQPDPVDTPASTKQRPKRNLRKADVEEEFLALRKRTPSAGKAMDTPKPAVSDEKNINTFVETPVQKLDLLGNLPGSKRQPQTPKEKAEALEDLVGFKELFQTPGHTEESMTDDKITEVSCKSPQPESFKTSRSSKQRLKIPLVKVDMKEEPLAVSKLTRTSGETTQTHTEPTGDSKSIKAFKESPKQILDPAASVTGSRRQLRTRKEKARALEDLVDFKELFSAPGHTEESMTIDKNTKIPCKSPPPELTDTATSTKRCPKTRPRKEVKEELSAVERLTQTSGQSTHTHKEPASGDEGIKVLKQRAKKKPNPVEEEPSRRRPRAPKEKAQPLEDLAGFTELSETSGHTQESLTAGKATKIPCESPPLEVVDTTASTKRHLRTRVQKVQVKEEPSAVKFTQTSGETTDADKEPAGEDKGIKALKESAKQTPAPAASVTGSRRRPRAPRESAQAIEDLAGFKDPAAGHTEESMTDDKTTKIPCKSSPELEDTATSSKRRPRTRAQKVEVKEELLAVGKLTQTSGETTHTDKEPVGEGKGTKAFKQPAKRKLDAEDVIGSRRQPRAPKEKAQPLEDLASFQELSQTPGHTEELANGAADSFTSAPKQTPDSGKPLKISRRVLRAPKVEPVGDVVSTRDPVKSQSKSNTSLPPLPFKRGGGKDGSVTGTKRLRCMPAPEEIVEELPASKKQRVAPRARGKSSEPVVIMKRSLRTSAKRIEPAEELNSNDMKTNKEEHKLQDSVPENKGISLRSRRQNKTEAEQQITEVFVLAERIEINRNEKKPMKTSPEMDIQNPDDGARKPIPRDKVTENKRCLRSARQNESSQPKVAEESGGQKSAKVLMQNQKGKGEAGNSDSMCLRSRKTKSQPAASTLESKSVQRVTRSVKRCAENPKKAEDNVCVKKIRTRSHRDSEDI

[28] = target: Human Ki-67 Antigen (human) (UniProt P46013); experiment: IHC on FFPE tonsil, primary 1:1200, EnVision-based detection K5007
[29] = target: Human Ki-67 Antigen (human) (UniProt P46013); experiment: IHC on FFPE tonsil, primary 1:400, PNA based detection (D12102 + D12094)
[30] = target: Human Ki-67 Antigen (human) (UniProt P46013); experiment: IHC on FFPE tonsil, primary 1:1200, PNA based detection (D12102 + D12094)
[31] = target: Human Ki-67 Antigen (human) (UniProt P46013); experiment: IHC on FFPE tonsil, primary 1:2400, PNA based detection (D12102 + D12094)
[32] = target: Human Ki-67 Antigen (human) (UniProt P46013); experiment: IHC on multi-block FFPE tissue, primary 1:1200, PNA system (D12102 + D12094)
[33] = target: Human Ki-67 Antigen (human) (UniProt P46013); experiment: IHC on multi tissue section, M7240 1:150, 3-layer PNA system with HRP, DAB+
[34] = target: Human Ki-67 Antigen (human) (UniProt P46013); experiment: Double IHC on multi tissue sections, M7240 1:150, 3-layer PNA system with AP
[35] = target: Human Ki-67 Antigen (human) (UniProt P46013); experiment: Double IHC on multi tissue sections, M7240 1:150, 3-layer PNA system with HRP, detection method 1
[36] = target: Human Ki-67 Antigen (human) (UniProt P46013); experiment: Double IHC on multi tissue sections, M7240 1:150, 3-layer PNA system with HRP, detection method 2
[37] = target: Human Ki-67 Antigen (human) (UniProt P46013); experiment: IHC on multi tissue section, M7240 1:150, 3-layer PNA system with AP / Permanent Red; first of two scores, taken as the specific one
Human p27 (human) [38] = target: Human p27 (human) (UniProt P46527); experiment: IHC on multi-block FFPE tissue, primary 1:400, K5007 reference
UniProt P46527, sequence (P46527 whole entry): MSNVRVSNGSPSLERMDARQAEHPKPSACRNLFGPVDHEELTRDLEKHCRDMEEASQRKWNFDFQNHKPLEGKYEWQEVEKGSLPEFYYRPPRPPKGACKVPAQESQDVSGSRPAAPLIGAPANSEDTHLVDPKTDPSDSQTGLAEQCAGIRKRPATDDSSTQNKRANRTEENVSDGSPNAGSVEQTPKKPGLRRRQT

Human p27 (human) [39] = target: Human p27 (human) (UniProt P46527); experiment: IHC on multi-block FFPE tissue, primary 1:400, PNA system (D12102 + D12094)
Tonsil tissues = experiment: IHC on FFPE tonsil, negative control IgG1 1:300, EnVision-based detection K5007
[40] = target: human BCL2 oncoprotein (human) (UniProt P10415); experiment: IHC on multi-block FFPE tissue, primary 1:500, K5007 reference
[41] = target: human BCL2 oncoprotein (human) (UniProt P10415); experiment: IHC on multi-block FFPE tissue, primary 1:500, PNA system (D12102 + D12094)

UniProt P11836, sequence (P11836 whole entry): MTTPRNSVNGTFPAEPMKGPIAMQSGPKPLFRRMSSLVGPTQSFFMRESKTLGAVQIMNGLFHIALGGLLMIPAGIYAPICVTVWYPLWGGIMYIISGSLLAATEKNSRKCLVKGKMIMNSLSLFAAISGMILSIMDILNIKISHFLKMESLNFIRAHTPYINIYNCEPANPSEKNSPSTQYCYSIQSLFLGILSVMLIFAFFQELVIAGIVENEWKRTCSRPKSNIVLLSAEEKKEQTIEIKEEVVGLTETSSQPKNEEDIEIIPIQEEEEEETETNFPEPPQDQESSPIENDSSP

K5007 GaM:HRP complex (ChemMate EnVision Detection kit Rabbit/Mouse, DakoCytomation code No. K5007 bottle A) (antibody)
Specific staining intensity with K5007 [1]: 3 score

Monoclonal Mouse Anti-Human CD20cy (DakoCytomation code No. M0755) (antibody)
Specific staining intensity (Human CD20cy (human) [2]): 1.5 score
Specific staining intensity (Human CD20cy (human) [3]): 2 score
Specific staining intensity (Human CD20cy (human) [4]): 3 score
Specific staining intensity (Human CD20cy (human) [5]): 2.5 score
Specific staining intensity (Human CD20cy (human) [6]): 1.5 score
Specific staining intensity (Human CD20cy (human) [7]): 1.5 score

Monoclonal Mouse Anti-Human CD45 LCA (DakoCytomation code No. M0701) (antibody)
Specific staining intensity (Human CD45 LCA (human) [8]): 2 score
Specific staining intensity (Human CD45 LCA (human) [9]): 3 score

Monoclonal Mouse Anti-Human CD68 (DakoCytomation code No. M0876) (antibody)
Specific staining intensity (Human CD68 (human) [10]): 2 score
Specific staining intensity (Human CD68 (human) [11]): 2 score

Monoclonal Mouse Anti-Human Cytokeratin (DakoCytomation code No. M3515) (antibody)
Specific staining intensity [12]: 1.5 score
Specific staining intensity [13]: 2 score
Specific staining intensity [14]: 2.5 score
Specific staining intensity [15]: 1.5 score
Specific staining intensity [16]: 2 score
specific staining [17]: 3 score
specific staining [18]: 2.5 score
specific staining [19]: 3 score
Specific staining intensity [20]: 3 score

Monoclonal Mouse Anti-Human Desmin (DakoCytomation code No. M0760) (antibody)
Specific staining intensity (Human Desmin (human) [21]): 1.5 score
Specific staining intensity (Human Desmin (human) [22]): 1.5 score

Monoclonal Mouse Anti-Human Epithelial Membrane Antigen (DakoCytomation code No. M0613) (antibody)
Specific staining intensity [23]: 1.5 score
Specific staining intensity [24]: 2.5 score

Monoclonal Mouse Anti-Human Estrogen Receptor (DakoCytomation code No. M7047) (antibody)
Specific staining intensity [25]: 2.5 score
Specific staining intensity [26]: 3 score

Monoclonal Mouse Anti-Human Ki-67 Antigen (DakoCytomation code No. M7240) (antibody)
Specific staining intensity [27]: 1.5 score
Specific staining intensity [28]: 2 score
Specific staining intensity [29]: 3 score
Specific staining intensity [30]: 2.5 score
Specific staining intensity [31]: 1.5 score
Specific staining intensity [32]: 2 score
Staining intensity score [33]: 2.5
specific staining [34]: 2 score
specific staining [35]: 1.5 score
specific staining [36]: 1.5 score
staining score [37]: 1

Monoclonal Mouse Anti-Human p27 (DakoCytomation code No. M7203) (antibody)
Specific staining intensity (Human p27 (human) [38]): 1.5 score
Specific staining intensity (Human p27 (human) [39]): 2.5 score

mouse IgG1 negative control (DakoCytomation code No. X0931) (antibody)
Specific staining intensity (Tonsil tissues): 0 score

mouse anti-human BCL2 oncoprotein, Clone 124 (DakoCytomation code No. M0887) (antibody)
Specific staining intensity [40]: 2 score
Specific staining intensity [41]: 2 score
